Conditions: Hirudo medicinalis, Thermal, DSC, reversible: yes, whole UniProt chain shown

B1: Eglin C wild type, P01051 (protein)
chain: TEFGSELKSFPEVVGKTVDQAREYFTLHYPQYDVYFLPEGSPVTLDLRYNRVRVFYNPGTNVVNHVPHVG
For B1, the Tm (pH 1.1, glycine-HCl 50mM) was 41.1 °C, the “heat capacity change of unfolding” value (pH 1.1, glycine-HCl 50mM) was 0.86 kcal/mol/K and the “unfolding enthalpy (calorimetric)” value (pH 1.1, glycine-HCl 50mM) was 163 kJ/mol. The Tm (pH 1.3, glycine-HCl 50mM) was 41.3 °C, the “heat capacity change of unfolding” value (pH 1.3, glycine-HCl 50mM) was 0.97 kcal/mol/K and the “unfolding enthalpy (calorimetric)” value (pH 1.3, glycine-HCl 50mM) was 154 kJ/mol. For the same protein, the Tm (pH 1.65, glycine-HCl 50mM) was 46.1 °C, the “heat capacity change of unfolding” value (pH 1.65, glycine-HCl 50mM) was 0.21 kcal/mol/K and the “unfolding enthalpy (calorimetric)” value (pH 1.65, glycine-HCl 50mM) was 164 kJ/mol. For the same protein, the Tm (pH 1.8, glycine-HCl 50mM) was 47.3 °C, the “heat capacity change of unfolding” value (pH 1.8, glycine-HCl 50mM) was 0.11 kcal/mol/K and the “unfolding enthalpy (calorimetric)” value (pH 1.8, glycine-HCl 50mM) was 175 kJ/mol. For the same protein, the Tm (pH 2, glycine 50mM) was 46.9 °C, the “heat capacity change of unfolding” value (pH 2, glycine 50mM) was 0.58 kcal/mol/K and the “unfolding enthalpy (calorimetric)” value (pH 2, glycine 50mM) was 173 kJ/mol. The Tm (pH 2.15, glycine 50mM) was 51.1 °C, the “heat capacity change of unfolding” value (pH 2.15, glycine 50mM) was 0.51 kcal/mol/K and the “unfolding enthalpy (calorimetric)” value (pH 2.15, glycine 50mM) was 196 kJ/mol. For the same protein, the Tm (pH 2.25, glycine 50mM) was 51.1 °C, the “heat capacity change of unfolding” value (pH 2.25, glycine 50mM) was 0.51 kcal/mol/K and the “unfolding enthalpy (calorimetric)” value (pH 2.25, glycine 50mM) was 195 kJ/mol. The Tm (pH 2.75, glycine 50mM) was 57.6 °C, the “heat capacity change of unfolding” value (pH 2.75, glycine 50mM) was 0.35 kcal/mol/K and the “unfolding enthalpy (calorimetric)” value (pH 2.75, glycine 50mM) was 213 kJ/mol. The Tm (pH 2.85, glycine 50mM) was 59.5 °C, the “heat capacity change of unfolding” value (pH 2.85, glycine 50mM) was 1.02 kcal/mol/K and the “unfolding enthalpy (calorimetric)” value (pH 2.85, glycine 50mM) was 219 kJ/mol. For the same protein, the Tm (pH 2.93, glycine 50mM) was 63.9 °C, the “heat capacity change of unfolding” value (pH 2.93, glycine 50mM) was 0.44 kcal/mol/K and the “unfolding enthalpy (calorimetric)” value (pH 2.93, glycine 50mM) was 251 kJ/mol. The Tm (pH 3, glycine 50mM) was 63.3 °C, the “heat capacity change of unfolding” value (pH 3, glycine 50mM) was 0.84 kcal/mol/K and the “unfolding enthalpy (calorimetric)” value (pH 3, glycine 50mM) was 240 kJ/mol. The Tm (pH 3.25, glycine 50mM) was 69 °C, the “heat capacity change of unfolding” value (pH 3.25, glycine 50mM) was 0.22 kcal/mol/K and the “unfolding enthalpy (calorimetric)” value (pH 3.25, glycine 50mM) was 235 kJ/mol. The Tm (pH 7, Sodium phosphate 50mM) was 85.8 °C, the “heat capacity change of unfolding” value (pH 7, Sodium phosphate 50mM) was 0.18 kcal/mol/K and the “unfolding enthalpy (calorimetric)” value (pH 7, Sodium phosphate 50mM) was 313 kJ/mol. For the same protein, the Tm (pH 7.01, Sodium phosphate 50mM) was 85.3 °C, the “heat capacity change of unfolding” value (pH 7.01, Sodium phosphate 50mM) was 0.17 kcal/mol/K and the “unfolding enthalpy (calorimetric)” value (pH 7.01, Sodium phosphate 50mM) was 297 kJ/mol. The Tm (pH 7.05, Sodium phosphate 50mM) was 85.5 °C, the “heat capacity change of unfolding” value (pH 7.05, Sodium phosphate 50mM) was 0.36 kcal/mol/K and the “unfolding enthalpy (calorimetric)” value (pH 7.05, Sodium phosphate 50mM) was 274 kJ/mol. For the same protein, the Tm (pH 8, Sodium phosphate 50mM) was 86.5 °C, the “heat capacity change of unfolding” value (pH 8, Sodium phosphate 50mM) was 0.51 kcal/mol/K and the “unfolding enthalpy (calorimetric)” value (pH 8, Sodium phosphate 50mM) was 303 kJ/mol. For the same protein, the Tm (pH 9.2, bicine 50mM) was 86.3 °C, the “heat capacity change of unfolding” value (pH 9.2, bicine 50mM) was 0.7 kcal/mol/K and the “unfolding enthalpy (calorimetric)” value (pH 9.2, bicine 50mM) was 302 kJ/mol. The Tm (pH 10.05, glycine 50mM) was 86.5 °C, the “heat capacity change of unfolding” value (pH 10.05, glycine 50mM) was 0.53 kcal/mol/K and the “unfolding enthalpy (calorimetric)” value (pH 10.05, glycine 50mM) was 303 kJ/mol. For the same protein, the Tm (pH 10.5, glycine 50mM) was 87 °C, the “heat capacity change of unfolding” value (pH 10.5, glycine 50mM) was 0.05 kcal/mol/K and the “unfolding enthalpy (calorimetric)” value (pH 10.5, glycine 50mM) was 308 kJ/mol. For the same protein, the Tm (pH 10.55, glycine 50mM) was 86 °C, the “heat capacity change of unfolding” value (pH 10.55, glycine 50mM) was 0.8 kcal/mol/K and the “unfolding enthalpy (calorimetric)” value (pH 10.55, glycine 50mM) was 287 kJ/mol.

Reference: FireProtDB (doi:10.1016/0301-4622(94)00157-f)
